Results reported in article PMC5674885 (The Journal of Cell Biology, 2017).

Biological target: T1, kindlin-2 (recombinant, full length, amino acids 1–680) (mouse, UniProt Q8CIB5 1-680)
T1 sequence (looked up): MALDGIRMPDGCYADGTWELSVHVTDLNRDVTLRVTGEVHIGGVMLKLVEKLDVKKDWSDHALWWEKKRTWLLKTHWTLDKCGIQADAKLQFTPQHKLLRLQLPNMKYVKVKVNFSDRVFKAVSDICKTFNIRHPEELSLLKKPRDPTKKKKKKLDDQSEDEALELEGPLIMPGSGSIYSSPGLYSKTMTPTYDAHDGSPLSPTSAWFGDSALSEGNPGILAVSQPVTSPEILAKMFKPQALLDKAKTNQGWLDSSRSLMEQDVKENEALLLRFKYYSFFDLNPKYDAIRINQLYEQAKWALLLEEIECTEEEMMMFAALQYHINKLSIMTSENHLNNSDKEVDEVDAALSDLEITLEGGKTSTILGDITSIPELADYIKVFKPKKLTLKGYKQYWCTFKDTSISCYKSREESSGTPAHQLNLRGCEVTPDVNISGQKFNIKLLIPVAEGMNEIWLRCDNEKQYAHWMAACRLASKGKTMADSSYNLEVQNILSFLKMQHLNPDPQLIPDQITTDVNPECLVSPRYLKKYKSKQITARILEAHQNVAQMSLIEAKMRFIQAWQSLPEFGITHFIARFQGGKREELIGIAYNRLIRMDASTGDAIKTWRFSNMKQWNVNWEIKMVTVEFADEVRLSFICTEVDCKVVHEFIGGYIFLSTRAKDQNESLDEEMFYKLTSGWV
Test: ITC

B1: paxillin (recombinant, full length, amino acids 1–557) (natural protein)
chain: not shown
modifications: Atto520 label (NHS ester) in the ultracentrifugation of Fig. 1 B only
Kd: 205 ± 59 nM
